Target: human voltage-gated sodium channel hNav1.1 (hSCN1A) (human) (UniProt P35498)
Assay: cell-based or functional assay

Chain of recombinant Hm1b (peptide) (P0DOC5 1-34, tags left off): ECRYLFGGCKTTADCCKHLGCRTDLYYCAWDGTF

recombinant Hm1b (peptide) showed an EC50 for evoking sustained currents of 18.5 nM.
